A short description of series [1]: Glutathione cleavage study. The class given is in vitro ADME. To be noted: for remaining at 4 h, 100 µM / remaining at 24 h, 100 µM: Tris buffer with 10 mM glutathione, Glutathione Challenge (10 mM), 100 μM conjugate, Tris pH 7.5, 37° C. Here is the method:
A 20 mM stock of conjugate was prepared in 100% DMSO. The stocks were subsequently diluted in 100 mM Tris, pH 7.5, to yield an intermediate dilution of 500 μM followed by an additional dilution of 1:5 in 100 mM Tris, pH 7.5 to give a final concentration of 100 μM of conjugate. 100 mM glutathione was prepared immediately prior to use in H2O and diluted 1:10 in challenge samples for a final glutathione challenge concentration of 10 mM. Samples were mixed by inversion and incubated at 37° C. for up to 24 hrs. […]
Samples were thawed and extracted as follows: 8 μL of 25% phosphoric acid followed by 117 μL of 100% acetonitrile/0.1% TFA were added to each sample, mixed and centrifuged at 13000×G for 10 minutes. The supernatant was pipetted into 0.2 mL HPLC vials and placed on a Perkin Elmer Flexar HPLC autosampler. The following table summarizes HPLC conditions:
Data was analyzed by calculating the percentage reduction of compound (area of retention time peak of […] conjugate/area of retention time peak of conjugate at time 0)×100.

The nature of the next series: Plasma stability studies. The class given is in vitro ADME. To be noted: rat plasma, 100 μM conjugate, 37° C. How it is done: A 20 mM stock of conjugate was prepared in 100% DMSO. The stocks were subsequently diluted in 100 mM Tris, pH 7.5 to yield an intermediate dilution of 500 μM and then diluted 1:5 directly into rat plasma to yield a final concentration of 100 μM of conjugate. Samples were mixed by inversion and incubated at 37° C. for up to 24 h. 50 μL samples were aliquoted into siliconized microfuge tubes at time 0, 4, and 24 h and immediately frozen at −80° C.
Samples were thawed and extracted as follows: 8 μL of 25% phosphoric acid followed by 117 μL of 100% Acetonitrile/0.1% TFA was added to each sample, mixed and centrifuged at 13000×G for 10 minutes. The supernatant was pipetted into 0.2 mL HPLC vials and placed on a Perkin Elmer Flexar HPLC autosampler. The following table summarizes HPLC conditions:
Data was analyzed by calculating the percentage reduction of compound (area of retention time peak of incubated conjugate/area of retention time peak of conjugate at time 0)×100.

For another series, the system named is HCT116. Description: cells. The class given is cell-based, human. To be noted: 96 h. How it is done: Cells were plated in 96 well black walled-clear bottom plates (Griener), DLD-1 WT cells at 2500 cells per well, FaDu, and HeLa cells at 5000 cells per well, and HCT116 at 3000 cells per well, in growth media containing 10% FBS. Cells were allowed to adhere at room temperature for 60 minutes before returning to a 37 C, 5% CO2 incubator. After 24 hours, media was removed and replaced with fresh growth media containing various drug concentrations. Each drug concentration was added in triplicate. Non-drug treated controls contained growth media only. Cells were returned to the incubator. Ninety-six hours after addition of drug, cells were fixed with 4% paraformaldehyde for 20 minutes and stained with Hoechst at 1 ug/mL. The plates were imaged on a Cytation 5 auto imager (BioTek) and cells were counted using CellProfiler (http://cellprofiler.org). The percent cell growth delay was calculated and data plotted using GraphPad Prism

SMILES strings stand for the structures.

As for `CC[C@@]1(O)C(=O)OCc2c1cc1n(c2=O)Cc2c-1nc1cc(F)c(C)c3c1c2[C@@H](NC(=O)O[C@H]1CCc2ccccc2[C@@H]1SSC[C@H](NC(=O)[C@H](Cc1c[nH]c2ccccc12)NC(=O)[C@H](CC(C)C)NC(=O)[C@H](CC(C)C)NC(=O)[C@H](CC(=O)O)NC(=O)[C@H](CC(C)C)NC(=O)[C@H](CC(C)C)NC(=O)[C@H](CC(C)C)NC(=O)[C@@H](NC(=O)[C@H](CC(=O)O)NC(=O)[C@@H](NC(=O)[C@@H]1CCCN1C(=O)[C@H](Cc1ccccc1)NC(=O)[C@H](CC(C)C)NC(=O)[C@H](CC(C)C)NC(=O)[C@H](CC(=O)O)NC(=O)[C@H](CC(C)C)NC(=O)[C@H](Cc1ccc(O)cc1)NC(=O)[C@H](C)NC(=O)[C@H](CCCNC(=N)N)NC(=O)[C@H](Cc1c[nH]c2ccccc12)NC(=O)[C@@H]1CCCN1C(=O)[C@H](CC(N)=O)NC(=O)[C@H](CCC(N)=O)NC(=O)[C@H](CC(=O)O)NC(=O)[C@H](CC(=O)O)NC(=O)[C@H](C)N)[C@@H](C)O)[C@@H](C)O)C(=O)NCC(=O)O)CC3` [Compound 24], the share remaining at 4 h, 100 µM in series [1] was 20.8%; in the series “Plasma stability studies”, 87%. Further, the share remaining at 24 h, 100 µM worked out at 4.2% in series [1] and 87% in the series “Plasma stability studies”. The same compound gave an IC50 in the series on HCT116 of 3.4 nM.

For the compound `CC[C@@]1(O)C(=O)OCc2c1cc1n(c2=O)Cc2c-1nc1cc(F)c(C)c3c1c2[C@@H](NC(=O)O[C@@H]1CCc2ccccc2[C@H]1SSC[C@H](NC(=O)[C@H](Cc1c[nH]c2ccccc12)NC(=O)[C@H](CC(C)C)NC(=O)[C@H](CC(C)C)NC(=O)[C@H](CC(=O)O)NC(=O)[C@H](CC(C)C)NC(=O)[C@H](CC(C)C)NC(=O)[C@H](CC(C)C)NC(=O)[C@@H](NC(=O)[C@H](CC(=O)O)NC(=O)[C@@H](NC(=O)[C@@H]1CCCN1C(=O)[C@H](Cc1ccccc1)NC(=O)[C@H](CC(C)C)NC(=O)[C@H](CC(C)C)NC(=O)[C@H](CC(=O)O)NC(=O)[C@H](CC(C)C)NC(=O)[C@H](Cc1ccc(O)cc1)NC(=O)[C@H](C)NC(=O)[C@H](CCCNC(=N)N)NC(=O)[C@H](Cc1c[nH]c2ccccc12)NC(=O)[C@@H]1CCCN1C(=O)[C@H](CC(N)=O)NC(=O)[C@H](CCC(N)=O)NC(=O)[C@H](CC(=O)O)NC(=O)[C@H](CC(=O)O)NC(=O)[C@H](C)N)[C@@H](C)O)[C@@H](C)O)C(=O)NCC(=O)O)CC3` [Compound 25], in series [1], the share remaining at 4 h, 100 µM was determined as 42% and the fraction remaining at 24 h, 100 µM is 4.1%. Also, in the series “Plasma stability studies”, the share remaining at 4 h, 100 µM turned out to be 103% and the fraction remaining at 24 h, 100 µM was 104%. For the same compound, in the series on HCT116, the IC50 worked out at 2.9 nM.

`CC[C@@]1(O)C(=O)OCc2c1cc1n(c2=O)Cc2c-1nc1cc(F)c(C)c3c1c2[C@@H](NC(=O)O[C@H]1CC[C@H](SSC[C@H](NC(=O)[C@H](Cc2c[nH]c4ccccc24)NC(=O)[C@H](CC(C)C)NC(=O)[C@H](CC(C)C)NC(=O)[C@H](CC(=O)O)NC(=O)[C@H](CC(C)C)NC(=O)[C@H](CC(C)C)NC(=O)[C@H](CC(C)C)NC(=O)[C@@H](NC(=O)[C@H](CC(=O)O)NC(=O)[C@@H](NC(=O)[C@@H]2CCCN2C(=O)[C@H](Cc2ccccc2)NC(=O)[C@H](CC(C)C)NC(=O)[C@H](CC(C)C)NC(=O)[C@H](CC(=O)O)NC(=O)[C@H](CC(C)C)NC(=O)[C@H](Cc2ccc(O)cc2)NC(=O)[C@H](C)NC(=O)[C@H](CCCNC(=N)N)NC(=O)[C@H](Cc2c[nH]c4ccccc24)NC(=O)[C@@H]2CCCN2C(=O)[C@H](CC(N)=O)NC(=O)[C@H](CCC(N)=O)NC(=O)[C@H](CC(=O)O)NC(=O)[C@H](CC(=O)O)NC(=O)[C@H](C)N)[C@@H](C)O)[C@@H](C)O)C(=O)NCC(=O)O)CC1)CC3` [Compound 26]: in series [1], the fraction remaining at 4 h, 100 µM turned out to be 75.8% and the amount remaining at 24 h, 100 µM turned out to be 32.1%. Moreover, in the series “Plasma stability studies”, the amount remaining at 4 h, 100 µM was 105% and the fraction remaining at 24 h, 100 µM turned out to be 112%. This compound also came in with an IC50 with HCT116 of 87 nM.

As for `CC[C@@]1(O)C(=O)OCc2c1cc1n(c2=O)Cc2c-1nc1cc(F)c(C)c3c1c2[C@@H](NC(=O)OC[C@@H](SSC[C@H](NC(=O)[C@H](Cc1c[nH]c2ccccc12)NC(=O)[C@H](CC(C)C)NC(=O)[C@H](CC(C)C)NC(=O)[C@H](CC(=O)O)NC(=O)[C@H](CC(C)C)NC(=O)[C@H](CC(C)C)NC(=O)[C@H](CC(C)C)NC(=O)[C@@H](NC(=O)[C@H](CC(=O)O)NC(=O)[C@@H](NC(=O)[C@@H]1CCCN1C(=O)[C@H](Cc1ccccc1)NC(=O)[C@H](CC(C)C)NC(=O)[C@H](CC(C)C)NC(=O)[C@H](CC(=O)O)NC(=O)[C@H](CC(C)C)NC(=O)[C@H](Cc1ccc(O)cc1)NC(=O)[C@H](C)NC(=O)[C@H](CCCNC(=N)N)NC(=O)[C@H](Cc1c[nH]c2ccccc12)NC(=O)[C@@H]1CCCN1C(=O)[C@H](CC(N)=O)NC(=O)[C@H](CCC(N)=O)NC(=O)[C@H](CC(=O)O)NC(=O)[C@H](CC(=O)O)NC(=O)[C@H](C)N)[C@@H](C)O)[C@@H](C)O)C(=O)NCC(=O)O)C(C)C)CC3` [Compound 27], the results for the amount remaining at 4 h, 100 µM (in series [1]; in the series “Plasma stability studies”) were 18% and 117%, respectively. Besides, the share remaining at 24 h, 100 µM in series [1] came to 0%; in “Plasma stability studies” it was 109%. Further, 0.7 nM corresponded to half-maximal inhibition in the series on HCT116 (IC50).

Turning to `CC[C@@]1(O)C(=O)OCc2c1cc1n(c2=O)Cc2c-1nc1cc(F)c(C)c3c1c2[C@@H](NC(=O)OC[C@H](SSC[C@H](NC(=O)[C@H](Cc1c[nH]c2ccccc12)NC(=O)[C@H](CC(C)C)NC(=O)[C@H](CC(C)C)NC(=O)[C@H](CC(=O)O)NC(=O)[C@H](CC(C)C)NC(=O)[C@H](CC(C)C)NC(=O)[C@H](CC(C)C)NC(=O)[C@@H](NC(=O)[C@H](CC(=O)O)NC(=O)[C@@H](NC(=O)[C@@H]1CCCN1C(=O)[C@H](Cc1ccccc1)NC(=O)[C@H](CC(C)C)NC(=O)[C@H](CC(C)C)NC(=O)[C@H](CC(=O)O)NC(=O)[C@H](CC(C)C)NC(=O)[C@H](Cc1ccc(O)cc1)NC(=O)[C@H](C)NC(=O)[C@H](CCCNC(=N)N)NC(=O)[C@H](Cc1c[nH]c2ccccc12)NC(=O)[C@@H]1CCCN1C(=O)[C@H](CC(N)=O)NC(=O)[C@H](CCC(N)=O)NC(=O)[C@H](CC(=O)O)NC(=O)[C@H](CC(=O)O)NC(=O)[C@H](C)N)[C@@H](C)O)[C@@H](C)O)C(=O)NCC(=O)O)C(C)C)CC3` [Compound 28], in series [1], the share remaining at 4 h, 100 µM amounted to 40.5% and the fraction remaining at 24 h, 100 µM was 0%. Besides, in “Plasma stability studies”, the amount remaining at 4 h, 100 µM amounted to 106% and the share remaining at 24 h, 100 µM turned out to be 106%. The compound further came in with an IC50 in the series on HCT116 of 1.1 nM.

Regarding `CC[C@@]1(O)C(=O)OCc2c1cc1n(c2=O)Cc2c-1nc1cc(F)c(C)c3c1c2[C@@H](NC(=O)CCSSC[C@H](NC(=O)[C@H](Cc1c[nH]c2ccccc12)NC(=O)[C@H](CC(C)C)NC(=O)[C@H](CC(C)C)NC(=O)[C@H](CC(=O)O)NC(=O)[C@H](CC(C)C)NC(=O)[C@H](CC(C)C)NC(=O)[C@H](CC(C)C)NC(=O)[C@@H](NC(=O)[C@H](CC(=O)O)NC(=O)[C@@H](NC(=O)[C@@H]1CCCN1C(=O)[C@H](Cc1ccccc1)NC(=O)[C@H](CC(C)C)NC(=O)[C@H](CC(C)C)NC(=O)[C@H](CC(=O)O)NC(=O)[C@H](CC(C)C)NC(=O)[C@H](Cc1ccc(O)cc1)NC(=O)[C@H](C)NC(=O)[C@H](CCCNC(=N)N)NC(=O)[C@H](Cc1c[nH]c2ccccc12)NC(=O)[C@@H]1CCCN1C(=O)[C@H](CC(N)=O)NC(=O)[C@H](CCC(N)=O)NC(=O)[C@H](CC(=O)O)NC(=O)[C@H](CC(=O)O)NC(=O)[C@H](C)N)[C@@H](C)O)[C@@H](C)O)C(=O)NCC(=O)O)CC3` [Compound 29], in series [1] (10 mM glutathione over 16 h), the “degradation on glutathione exposure (FIG. 10)” value is given as “released much faster than Compound 11”. Also, in series [1], the share remaining at 4 h, 100 µM was 3.1% and the amount remaining at 24 h, 100 µM was 5.9%. Also, in the series “Plasma stability studies”, the fraction remaining at 4 h, 100 µM amounted to 116% and the fraction remaining at 24 h, 100 µM was 110%. The compound further gave an IC50 in the series with HCT116 of 69 nM.

The term IC50 denotes the concentration that inhibits the measured activity by half.

For the origin of these results see US12410262B2, “Peptide conjugates of cytotoxins as therapeutics” (Cybrexa 2, Inc., priority 2019, dated 2025).
